# Reference: patent publication US20210179726A1 (DINGFU BIOTARGET, published 2021)
# Residue numbers refer to the chain shown, from its start.
# T1: hGITR-EGFP on HEK293 cells (human, UniProt Q9Y5U5 26-241)
# T1 construct: EGFP fusion expressed on transfected HEK293 cells; also called human GITR
# T1 sequence (looked up): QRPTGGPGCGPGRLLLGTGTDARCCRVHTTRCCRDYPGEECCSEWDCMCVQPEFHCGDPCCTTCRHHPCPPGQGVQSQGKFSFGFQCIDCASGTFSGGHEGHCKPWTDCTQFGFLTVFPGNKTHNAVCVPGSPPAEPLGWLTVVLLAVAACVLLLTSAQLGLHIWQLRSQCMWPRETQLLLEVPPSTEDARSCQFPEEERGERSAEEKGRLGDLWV
# T2: hOX40-EGFP on HEK293 cells (human, UniProt P43489 29-277)
# T2 construct: EGFP fusion expressed on transfected HEK293 cells; also called human OX40
# T2 sequence (looked up): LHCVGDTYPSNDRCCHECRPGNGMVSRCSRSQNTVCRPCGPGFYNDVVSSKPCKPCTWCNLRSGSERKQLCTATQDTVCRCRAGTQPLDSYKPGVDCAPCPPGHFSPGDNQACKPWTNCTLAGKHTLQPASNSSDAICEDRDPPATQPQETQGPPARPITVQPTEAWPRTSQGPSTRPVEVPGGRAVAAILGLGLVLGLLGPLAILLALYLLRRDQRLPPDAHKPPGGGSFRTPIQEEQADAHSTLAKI
# T3: hCD27-EGFP on HEK293 cells (human, UniProt P26842 20-260)
# T3 construct: EGFP fusion expressed on transfected HEK293 cells; also called CD27-EGFP cells; cell surface CD27
# T3 sequence (looked up): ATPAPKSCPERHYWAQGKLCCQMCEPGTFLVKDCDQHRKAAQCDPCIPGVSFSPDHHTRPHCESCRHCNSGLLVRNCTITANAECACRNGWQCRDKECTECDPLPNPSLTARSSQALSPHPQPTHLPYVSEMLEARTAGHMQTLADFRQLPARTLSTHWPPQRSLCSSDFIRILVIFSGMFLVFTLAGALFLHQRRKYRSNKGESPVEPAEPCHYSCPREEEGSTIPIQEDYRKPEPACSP
# T4: hCD27-muFc (human; mouse, UniProt P26842 20-192)
# T4 construct: range 1-192; Secreted from HEK293, Protein A purified; not shown: mouse IgG1-Fc (muFc), residues 98 to 324 of UniProt P01868
# T4 sequence (looked up): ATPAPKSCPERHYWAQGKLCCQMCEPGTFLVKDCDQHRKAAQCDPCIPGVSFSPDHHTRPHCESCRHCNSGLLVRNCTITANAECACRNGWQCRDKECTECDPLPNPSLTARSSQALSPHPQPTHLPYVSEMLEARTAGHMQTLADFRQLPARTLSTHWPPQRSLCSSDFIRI
# B1: m2E7 (antibody, human IgG1, V domains shown)
# VH: EVQLQESGPELKKPGETVKISCKASGYTFTTYGMSWVKQAPGKGLQWMGWINTNSGVPTYVEDFKGRFAFSLESSANTAYLQINNLKNEDTAIYFCTREGDALDYWGQGTSVTVSS
# VL: DIVMTQSTAIMSASPGEKVTMTCSASSSVSYMHWYQQKSGTSPRRWIYDTSRLASGVPARFSGSGSGTSYSLTISSMEAEDAATYYCQQWSNTPPFTFGAGTKLELK
# notes: also called clone 2E7; not shown: human IgG1 constant region, UniProt P01857
# B2: m3E7 (antibody, human IgG1, V domains shown)
# VH: QIQLVQSGPELKKPGETVKISCKASGYTFTTYGMSWVKQAPGKGLHWMGWINTHSGAPTYVDDFKGRFAFSLETSASTAFLQINNLINEDTATYFCAREGDALDYWGQGTSVTVSS
# VL: B1 VL with S7T, S14F, R44K, R52K, A59V, S76N, N92R, T93N
# notes: Chimeric antibody: mouse VH/VL on human IgG1 / human kappa constant regions; also called clone 3E7; not shown: human IgG1 constant region, UniProt P01857
# B3: m4H3 (antibody, human IgG1, V domains shown)
# VH: QVQLQQSGPELVKPGASVKISCKASGYSFTAYNINWVKQTNGKSLEWIGIINPNYGTTSYNQKFKGKATLTVDQSSSTAYMQLNSLTSEDSAVYYCARRNGDYVGYAMDSWGQGTSVTVSS
# VL: DIVLTQSPAILSVSPGERVSFSCRASQSIGTSMHWYQQRKNGSPRLLIKYASESISGIPSRFSGSGSGTDFTLSINSVESEDIADYYCQQTNNWPWTFGGGTKLEFK
# notes: Chimeric antibody: mouse VH/VL on human IgG1 / human kappa constant regions; also called clone 4H3; not shown: human IgG1 constant region, UniProt P01857
# B4: m3B8 (antibody, human IgG1, V domains shown)
# VH: QVQLQESGPGLVAPSQSLSITCTVSGFSLTNYAVSWVRQPPGKGLEWLGVIWGDGTTNYHSALISRLIISKDNSKSQVFLKLNSLQTDDTATYYCAKEGDYGDYVGWFAYWGQGTLVTVSA
# VL: DIVLTQSPASLAVSLGQRATISCRASESVEYYGTSLMQWYQQKPGQPPKLLIYAASNVESGVPARFSGSGSGTDFSLNIHPVEEDDFAMYFCQQSRKIPYTFGGGTKLEIK
# notes: Chimeric antibody: mouse VH/VL on human IgG1 / human kappa constant regions; also called clone 3B8; not shown: human IgG1 constant region, UniProt P01857
# B5: m2F11 (antibody, human IgG1, V domains shown)
# VH: EVQLQESGGDLVKPGGSLKLSCAASGFTFSSYAMSWVRQTPEKRLEWVAIIGDGDTYTYYPDSVKGRFTVSRDNAKNNLYLQMSHLKSEDTAMYYCVRTRGGPFDYWGQGTTLTVSS
# VL: DIVLTQTPALMSASPGEKVTMTCSASSSVGSMHWYQQKSGTSPKRWIYDTSKLASGVPARFSGSGSGTSYSLTISSMEAEDAATYYCQQWSSIPPTFGAGTTLELK
# notes: Chimeric antibody: mouse VH/VL on human IgG1 / human kappa constant regions; Parent of the humanized antibodies; also called clone 2F11; not shown: human IgG1 constant region, UniProt P01857
# B6: m2G3 (antibody, human IgG1, V domains shown)
# VH: EVKLQESGGGLVKPGGSLKLSCAASGFTFSSFAMSWIRQTPEKRLEWVAAISDGGTYTYYPNNVKGRFTISRDDAKNNLYLQMSHLKSEDTAMYYCVRNRGGPFDYWGQGTTLTVSS
# VL: B5 VL with T7S, L10I, G30S, S31Y, H33N, A59V, S91N, I93N, T102K
# notes: Chimeric antibody: mouse VH/VL on human IgG1 / human kappa constant regions; also called clone 2G3; not shown: human IgG1 constant region, UniProt P01857
# Tests used:
# [1] = biological target: T1, hGITR-EGFP on HEK293 cells; experiment: FACS on hGITR-EGFP HEK293 cells
# Experimental: (§1) The hCD137-EGFP, hOX40-EGFP and hGITR-EGFP cells as described in Example 1 were washed twice in PBS, 10 μg/ml of each chimeric antibody as prepared in Example 3 (m2E7, m2B8, m4H3, m3E7, m1A8, m4G1, m2G3, m2F11 and m3B8) was added to each type of cells and incubated at 4° C. for 30 min. Then it was washed twice with PBS, anti-human Ig-APC (Jackson ImmunoResearch Laboratories, Cat #109-135-098) was added and were incubated at 4° C. for 30 min, washed twice with PBS and resuspended in 300 μl PBS. In FIG. 2, NC represents negative control (PBS), a-hlg-APC represents secondary antibody only, the other panels represent results obtained with each of the corresponding clone, respectively.
# [2] = biological target: T5, hCD137-EGFP on HEK293 cells (human, UniProt Q07011 24-255); experiment: FACS dot plot on CD137-EGFP HEK293 cells, anti-human Ig-APC secondary
# T5 construct: EGFP fusion expressed on transfected HEK293 cells; also called human CD137
# Experimental: as §1
# [3] = biological target: T2, hOX40-EGFP on HEK293 cells; experiment: FACS dot plot on OX40-EGFP HEK293 cells, anti-human Ig-APC secondary
# Experimental: as §1
# [4] = biological target: T2, hOX40-EGFP on HEK293 cells; experiment: FACS on hOX40-EGFP HEK293 cells
# Experimental: as §1
# [5] = biological target: T5, hCD137-EGFP on HEK293 cells; experiment: FACS on hCD137-EGFP HEK293 cells
# Experimental: as §1
# [6] = biological target: T3, hCD27-EGFP on HEK293 cells; experiment: FACS on CD27-EGFP HEK293 cells, 10 µg/ml antibody
# Experimental: 5×10⁵ CD27-EGFP cells prepared in Example 1 were washed twice in PBS, 10 μg/ml of each chimeric antibody prepared in Example 3 (m2E7, m2B8, m4H3, m3E7, m1A8, m4G1, m2G3, m2F11 and m3B8) was added to the cells and incubated at 4° C. for 30 min. Then it was washed twice in PBS, anti-human Ig-APC (Jackson ImmunoResearch Laboratories, Cat #109-135-098) was added, incubated at 4° C. for 30 min, washed twice with PBS and resuspended in 300 μl PBS. In FIG. 1, NC represents negative control (PBS), a-hlg-APC represents secondary antibody only, the other panels represent results obtained with each of the corresponding clone, respectively.
# hCD27-muFc [7] = biological target: T4, hCD27-muFc; experiment: ELISA, plate coated with hCD27-muFc, Test 1
# Experimental: (§2) The ELISA plate was coated with 2 μg/ml hCD27-muFc, 100 μl/well and incubated at 4° C. overnight. Then it was washed once with 10 mM, pH 7.4 PBS/Tween (0.05%), blocked with PBST containing 5% skimmed milk powder and incubated at 37° C. for 2 h. After washing the plate for 4 times, the humanized antibodies were added and incubated at 37° C. for 40 min, then it was washed for 4 times. Anti-human IgG-HRP-conjugated secondary antibody (Sigma, Cat #A0170-1M) was added and incubated at 37° C. for 40 min. After washing, the plate was developed with TMB substrate and spectrophotometric analysis was performed at OD₄₅₀. In FIGS. 5A-5B, each curve represents the binding result obtained for one of the humanized antibodies. From the results, it can be seen that all these humanized antibodies could bind to human CD27.
# hCD27-muFc [8] = biological target: T4, hCD27-muFc; experiment: BLI (Octet K2), antibody on Protein A biosensor, hCD27-muFc in solution
# Experimental: Using the BLI method, each humanized antibody was immobilized on a Protein A biosensor at a concentration of 10 μg/ml, while hCD27-muFc was subjected to 2-fold serial dilution, starting from 100 nM, to obtain 5 gradient dilutions for each antibody. The reaction plate was placed on the Octet K2 instrument. The parameters were set to Baseline 70 s, Association 80 s, Dissociation 300 s, Baseline 260 s, Loading 40 s, and Custom 5 s.
# hCD27-muFc [9] = biological target: T4, hCD27-muFc; experiment: ELISA, plate coated with hCD27-muFc, Test 2
# Experimental: as §2
# [10] = biological target: T3, hCD27-EGFP on HEK293 cells; experiment: FACS titration on CD27-EGFP HEK293 cells, 8 three-fold dilutions from 20 µg/ml, anti-human Ig-APC secondary, MFI; table drawn under the plot, unit from the x axis; no upper plateau reached
# Experimental: Based on the above results of ELISA, 7 humanized antibodies were selected to examine their affinities to cell surface CD27. Briefly, 5×10⁵ CD27-EGFP cells prepared in Example 1 were washed twice in PBS, each of the humanized antibodies (d16647, d12996, d9419, 14822, 9424, d14822, d12674) was added. The antibodies were subjected to 3-fold serial dilution, starting from 20 μg/ml, to obtain 8 gradient dilutions for each antibody. The antibodies and the cells were incubated at 4° C. for 30 min. Then, it was washed twice with PBS, anti-human Ig-APC (Jackson ImmunoResearch Laboratories, Cat #109-135-098) was added, and incubated at 4° C. for 30 min, washed twice with PBS and resuspended in 300 μl PBS. Flow cytometry was then performed, and the results are shown in FIG. 6. m2F11 was used as a control.
# T5 sequence (Q07011 24-255): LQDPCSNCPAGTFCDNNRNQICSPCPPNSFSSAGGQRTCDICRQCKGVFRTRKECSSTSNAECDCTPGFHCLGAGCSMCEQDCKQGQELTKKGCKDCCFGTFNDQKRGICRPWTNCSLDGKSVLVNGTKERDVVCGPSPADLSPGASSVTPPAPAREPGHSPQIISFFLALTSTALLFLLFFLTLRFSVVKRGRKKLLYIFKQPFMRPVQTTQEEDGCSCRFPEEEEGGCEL
Binder,binding result [1],binding result [2],binding result [3],binding result [4],binding result [5],further results
B1,no binding (tested: 10 µg/ml),no binding (tested: 10 µg/ml),no binding (tested: 10 µg/ml),–,–,–
B2,no binding (tested: 10 µg/ml),–,–,no binding (tested: 10 µg/ml),no binding (tested: 10 µg/ml),binding result [6]: binds
B3,no binding (tested: 10 µg/ml),–,–,no binding (tested: 10 µg/ml),no binding (tested: 10 µg/ml),–
B4,no binding (tested: 10 µg/ml),no binding (tested: 10 µg/ml),no binding (tested: 10 µg/ml),–,–,–
B5,no binding (tested: 10 µg/ml),no binding (tested: 10 µg/ml),no binding (tested: 10 µg/ml),–,–,EC50 (hCD27-muFc [7]): 0.0315 µg/mL; Kd (hCD27-muFc [8]): 0.835 nM; koff (hCD27-muFc [8]): 0.000108 s⁻¹; kon (hCD27-muFc [8]): 130000 M⁻¹ s⁻¹; EC50 (hCD27-muFc [9]): 0.0279 µg/mL; LogEC50 [10]: 0.417 Log10(ug/ml)
B6,no binding (tested: 10 µg/ml),no binding (tested: 10 µg/ml),no binding (tested: 10 µg/ml),–,–,–
